Positions count from the first letter of the chain named.
B1: STE72-8A2 (antibody, V domains shown)
VH: QVQLVQSGAEVKKPGASVKVSCKASGYTFTSYGISWVRQAPGQGLEWMGWISAYNGNTNYAQKLQGRVTMTTDTSTSTAYMELRSLRSDDTAVYYCARFFYDSSGYSTDYWGQGTLVTVSS
VL: not shown
B2: STE72-2G4 (antibody, V domains shown)
VH: B1 VH
VL: ETTLTQSPAFMSVTPGDRAILSCRASQSVDSHLAWYHQKPGQPPRLLIYGASTRATGIPARFSGSRSGTEFTLTISGLQSEDLGVYYCQQYASWPPGYNFGQGTKLEIK
B3: STE72-8A6 (antibody, V domains shown)
VH: B1 VH
VL: DIVMTQSPSTLSASVGDRVTISCRASQNIGTWLAWYQQKPGKAPKLLISKASSLESGVPSRFSGSGSGTDFTLTISSLQPDDFATYYCQQYDSYLFTFGQGTKLEIR
B4: STE72-1B6 (antibody, V domains shown)
VH: QVKLVQSGGGLVQPGGSLRLSCAASGFTFSSYAMSWVRQAPGKGLEWVSGISGSGGSTYYADSVKGRFTISRDNSKNTLYLQVNSLRAEDTAVYYCAKAPYGDFRGLWYFDYWGQGTLVTVSS
VL: DIVMTQSPFSVSASVGDRVTISCRASQDIRSWLAWYQQKPGKAPQLLIYDASSLQSGVPSRFSGSGSGTDFTLTISSLQPEDFATYYCQQADSVPLTFGGGTKVEIQ
B5: STE72-4E12 (antibody, V domains shown)
VH: QVQLVQSGAEVKKPGASVKVSCKASGYTFTSYYMHWVRQAPGQGLEWMGIINPSGGSTSYAQKFQGRVTMTRDTSTSTVYMELSSLRSEDTAVYYCARDLSGGLDYWGQGTLVTVSS
VL: ETTLTQSPATLSVSPGERVTLACRAGQTISSKLAWYRQKPGQAPSLLIYDASTRATGVPARFSGSGSGTEFTLTISSLQSEDFAVYYCQQYSDWPPTFGQGTKVEIK
B6: STE70-1E12 (antibody, V domains shown)
VH: QMQLVQSGAEVKKPGASVKVSCKASGYTFTGYYMHWVRQAPGQGLEWMGRINPNSGGTNYAQKFQGRVTMTRDTSTSTAYMELSRLRSDDTAVYYCVRDGYNFNNWFDPWGQGTLVTVSS
VL: NFMLTQPHSVSGSPGETITISCTGSGGSIASNYVQWYRQRPGSAPTIVIYEDTQRPSGVPDRFSGSIDSSSNSASLTISGLKTEDEADYYCQSSESTNHVMFGGGSKLTVL
B7: STE73-2B2 (antibody, V domains shown)
VH: QVQLVQSGAEVKKPGASVKVSCKASGYTFTGYYMHWVRQAPGQGLEWMGWINPNSGGTNYAQKFQGRVTITRDTSASTAYMELSSLRSEDTAVYYCARVSGWYFGAFDIWGQGTMVTVSS
VL: LPVLTQPHSLSESPGKTVNISCTGSSGSIASNYVQWYQQRPGSAPTTVIYEDSHRPSGVPDRFSGSIDSSSNSASLSISGLKTEDEADYYCQSYDSSNNQWVFGGGTKLTVL
B8: STE73-6B10 (antibody, V domains shown)
VH: QVQLVQSGAEVKKPGASVKVSCKASGYTFTSYGISWVRQAPGQGLEWMGWINPNSGGTNYAQKFQGRVTMTRDTSISTAYMELSRLRSDDTAVYYCARDRLRYGDSGSYYYYGMDVWGQGTTVTVSS
VL: QSALTQPRSVSGSPGQSVTISCTGTSSDVGGYNYVSWYQQHPGKAPKLLISEVTRRPSGVPDRFSGSKSGNTASLTVSGLQTEDEADYYCGSYAGSNTWVFGGGTKLTVL
B9: STE73-2G8 (antibody, V domains shown)
VH: QVQLVQSGGGLVKPGGSLRLSCAASGITVSSNYMSWVRQAPGKGLEWVSILYSGGTTFYTDSVKGRFTISRDNSKNTLHLQMNSLRAEDTAVYYCARWSGTYYDYWGQGTLVTVSS
VL: SSELTQDPAVSVALGQTVRITCQGDSLRSYYASWYQQKPGQAPVLVIYGKNNRPSGIPDRFSGSSSGNTASLTITGAQAEDEADYYCNSRDSTNDPVLFGAGTKLTVL
B10: STE73-6C1 (antibody, V domains shown)
VH: QVQLVQSGGGVVQPGRSLRLSCAASGFTFSSYAMHWVRQAPGKGLEWVAVISYDGSNKYYADSVKGRFTISRDNSKNTLYLQMNSLRAEDTAVYYCARSYVGGMDVWGQGTTVTVSS
VL: QLVLTQSPSVSGAPGQSVTISCTGTDSNIGAGYNVHWYQQLPGAAPKLIISYTDNRPSGVPDRFSGSKSGTSASLAITGLQAEDEADYYCQSSDRTLVGSLFGTGTKVTVL
B11: STE73-9G3 (antibody, V domains shown)
VH: QVQLQESGGGLVQPGGSLRLSCAASGFTFSSYAMSWVRQAPGKGLEWVSAISGSGGSTYYADSVKGRFTISRDNSKNTLYLQMNSLRAEDTAVYYCARDLVLGSGSSNDWGRGTLVTVSS
VL: B10 VL with L2P, S7P
B12: STE73-2C2 (antibody, V domains shown)
VH: QVQLVESGGGLVQPGGSLRLSCAASGITVSSNYMSWVRQAPGKGLEWVSVIYSGGSTFYADSVKGRFTISRDNSKNTLYLQMNSLRAEDTGVYYCARGHDNLDYWGQGTLVTVSS
VL: LPVLTQPHSVSESPGKTVIISCTGSSDSIASNYVQWYQQRPGSAPTTVIYEDNKRPSGVPDRFSGSTDSSSNSASLTISGLKTEDEAEYYCQSYDSNNHWVFGGGTKLTVL
B13: STE73-2E9 (antibody, V domains shown)
VH: QVQLVQSGAEVKKPGASVKVSCKASGYTFTSYGISWVRQAPGQGLEWMGWISAYNGNTNYAQKLQGRVTMTTDTSTSTAYMELRSLRSDDTAVYYCARGKFDYWGQGTLVTVSS
VL: QSVLTQPPSVSEAPSQRVTISCSGSSSNIGNNAVNWYQQLPGKAPKLLIYYDDVLPSGVSDRFSGSKSGTSASLAISGLQSGDEADYYCAAWDDSLSGVVFGGGTKLTVL

biological target: T1, receptor binding domain (RBD) of the S1-subunit of SARS-CoV-2 glycoprotein S (UniProt P0DTC2 319-541); experiment: flow

| Binder | IC50 [nM] |
| --- | --- |
| B1 | 1.5 |
| B2 | 3.7 |
| B3 | 2.8 |
| B4 | 4.8 |
| B5 | 3 |
| B6 | 3.2 |

biological target: T1, receptor binding domain (RBD) of the …; experiment: flow; remark: another data set of the same source

| Binder | IC50 [nM] |
| --- | --- |
| B7 | 1.7 |
| B8 | 73 |
| B9 | 2.8 |
| B10 | 4.1 |
| B11 | 3.4 |
| B12 | 3 |
| B13 | 3.4 |

biological target: T2, S1-mFc (UniProt P0DTC2 14-694); experiment: ELISA

| Binder | EC50 [nM] |
| --- | --- |
| B7 | 0.8 |
| B8 | 15.3 |
| B9 | 1 |
| B10 | 2.8 |
| B11 | 1.6 |
| B12 | 17.9 |
| B13 | 0.6 |

biological target: T3, RBD-mFc (UniProt P0DTC2 319-591); experiment: ELISA

| Binder | EC50 [nM] |
| --- | --- |
| B7 | 0.5 |
| B8 | 17.3 |
| B9 | 0.7 |
| B10 | 2 |
| B11 | 1.4 |
| B12 | 9.6 |
| B13 | 0.7 |

biological target: S1- (UniProt P0DTC2 14-1210); experiment: ELISA

| Binder | EC50 [nM] |
| --- | --- |
| B5 | 11.6 |

biological target: T2, S1-mFc; experiment: ELISA; remark: another data set of the same source

| Binder | EC50 [nM] |
| --- | --- |
| B1 | 2.3 |
| B2 | 0.9 |
| B3 | 2.9 |
| B4 | 2.2 |
| B5 | 10.4 |
| B6 | 1.5 |

biological target: T3, RBD-mFc; experiment: ELISA; remark: another data set of the same source

| Binder | EC50 [nM] |
| --- | --- |
| B1 | 1.5 |
| B2 | 0.7 |
| B3 | 1.5 |
| B4 | 1.6 |
| B5 | 4.7 |
| B6 | 1.1 |
